Data published in paper PMC4299599, “Quantification of cytosolic interactions identifies Ede1 oligomers as key organizers of endocytosis” (Molecular Systems Biology, 2014).
One block for each binder: values may come before it.

Columns and labels:
Details in all cases: partners not purified
[1] = target: T1, Bbc1 (S. cerevisiae, UniProt P47068 1-1157); assay: fluorescence cross-correlation spectroscopy (FCCS); in the cytoplasm of living yeast cells; first-named protein green (3myeGFP or 1myeGFP; eGFP for Don1), second red (3mCherry); self-interaction in diploid strains with one allele of each colour; apparent or effective KD (Kdeff) from single-cell measurements; only Kdeff values < 1000 nM are shown; values for self-interactions are upper limits
T1 construct: Bbc1, S. cerevisiae; also called Bbc1-3myeGFP; Bbc1-3mCherry; source: chromosomally tagged at the endogenous locus, in the cytoplasm of living S. cerevisiae cells
T1 sequence (looked up): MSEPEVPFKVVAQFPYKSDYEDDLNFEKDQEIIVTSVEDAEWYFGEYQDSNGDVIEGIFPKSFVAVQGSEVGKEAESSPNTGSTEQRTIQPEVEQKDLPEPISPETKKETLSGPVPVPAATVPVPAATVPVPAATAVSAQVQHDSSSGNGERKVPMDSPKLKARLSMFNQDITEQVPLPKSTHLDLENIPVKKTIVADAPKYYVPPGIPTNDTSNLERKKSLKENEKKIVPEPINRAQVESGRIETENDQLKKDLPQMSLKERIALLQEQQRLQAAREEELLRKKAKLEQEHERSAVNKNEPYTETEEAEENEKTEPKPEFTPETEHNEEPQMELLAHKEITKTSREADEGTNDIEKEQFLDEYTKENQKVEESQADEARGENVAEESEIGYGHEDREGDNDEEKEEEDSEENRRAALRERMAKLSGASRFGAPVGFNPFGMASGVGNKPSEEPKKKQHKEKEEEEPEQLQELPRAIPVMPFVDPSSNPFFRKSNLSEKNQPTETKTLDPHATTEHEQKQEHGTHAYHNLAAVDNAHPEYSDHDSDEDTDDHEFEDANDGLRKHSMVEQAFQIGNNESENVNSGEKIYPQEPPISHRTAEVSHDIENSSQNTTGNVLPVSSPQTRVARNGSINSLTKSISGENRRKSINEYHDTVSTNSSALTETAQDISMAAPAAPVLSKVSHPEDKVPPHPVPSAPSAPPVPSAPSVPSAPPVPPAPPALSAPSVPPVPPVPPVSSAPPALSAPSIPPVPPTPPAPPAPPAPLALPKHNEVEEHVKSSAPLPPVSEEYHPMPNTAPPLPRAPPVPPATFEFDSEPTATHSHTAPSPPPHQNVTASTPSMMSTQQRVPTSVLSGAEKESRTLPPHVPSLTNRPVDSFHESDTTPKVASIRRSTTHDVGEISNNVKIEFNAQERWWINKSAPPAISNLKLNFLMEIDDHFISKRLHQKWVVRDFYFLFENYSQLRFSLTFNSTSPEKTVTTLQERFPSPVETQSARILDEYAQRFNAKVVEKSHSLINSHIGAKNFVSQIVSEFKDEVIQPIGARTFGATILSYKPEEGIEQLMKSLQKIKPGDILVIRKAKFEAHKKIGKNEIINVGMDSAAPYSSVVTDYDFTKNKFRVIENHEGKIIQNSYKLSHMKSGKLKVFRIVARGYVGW

[2] = target: T2, Sla1 (S. cerevisiae, UniProt P32790 1-1244); assay: as above
T2 construct: Sla1, S. cerevisiae; also called Sla1-3myeGFP; Sla1-3mCherry; source: chromosomally tagged at the endogenous locus, in the cytoplasm of living S. cerevisiae cells
T2 sequence (looked up): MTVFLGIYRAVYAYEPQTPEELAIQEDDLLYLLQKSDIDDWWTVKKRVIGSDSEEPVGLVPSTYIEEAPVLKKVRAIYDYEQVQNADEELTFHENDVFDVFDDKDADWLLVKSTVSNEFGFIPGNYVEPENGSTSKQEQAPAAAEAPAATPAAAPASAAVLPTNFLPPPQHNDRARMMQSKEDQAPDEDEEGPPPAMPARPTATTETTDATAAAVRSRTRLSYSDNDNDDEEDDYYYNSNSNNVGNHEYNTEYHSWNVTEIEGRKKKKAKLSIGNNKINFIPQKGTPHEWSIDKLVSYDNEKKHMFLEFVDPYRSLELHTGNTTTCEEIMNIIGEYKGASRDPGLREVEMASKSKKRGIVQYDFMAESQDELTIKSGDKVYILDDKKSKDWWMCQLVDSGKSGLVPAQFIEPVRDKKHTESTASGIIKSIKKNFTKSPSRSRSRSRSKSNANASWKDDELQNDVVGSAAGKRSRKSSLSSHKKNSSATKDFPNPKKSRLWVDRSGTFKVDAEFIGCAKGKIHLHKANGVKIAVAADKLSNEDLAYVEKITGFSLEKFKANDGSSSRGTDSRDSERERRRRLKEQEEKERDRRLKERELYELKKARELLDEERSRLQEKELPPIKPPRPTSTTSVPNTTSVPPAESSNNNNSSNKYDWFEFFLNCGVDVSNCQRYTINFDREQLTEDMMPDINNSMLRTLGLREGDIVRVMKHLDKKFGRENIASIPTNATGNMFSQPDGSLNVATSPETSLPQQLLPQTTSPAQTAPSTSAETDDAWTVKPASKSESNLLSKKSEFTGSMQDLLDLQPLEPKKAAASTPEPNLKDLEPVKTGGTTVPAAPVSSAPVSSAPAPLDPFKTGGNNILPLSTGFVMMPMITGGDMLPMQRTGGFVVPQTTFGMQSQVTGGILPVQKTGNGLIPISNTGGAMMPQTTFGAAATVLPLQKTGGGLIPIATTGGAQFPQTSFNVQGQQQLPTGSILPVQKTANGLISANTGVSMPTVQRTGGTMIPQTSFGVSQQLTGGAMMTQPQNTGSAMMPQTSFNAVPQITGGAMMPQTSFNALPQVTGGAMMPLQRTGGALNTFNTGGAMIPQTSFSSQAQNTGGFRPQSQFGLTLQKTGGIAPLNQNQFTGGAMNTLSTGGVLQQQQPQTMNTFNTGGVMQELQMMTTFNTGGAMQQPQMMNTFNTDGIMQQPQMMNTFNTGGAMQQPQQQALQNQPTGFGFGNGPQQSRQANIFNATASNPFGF

[3] = target: T3, Rvs167 (S. cerevisiae, UniProt P39743 1-482); assay: as above
T3 construct: Rvs167, amphiphysin-like protein, S. cerevisiae; also called Rvs167-1myeGFP; source: chromosomally tagged at the endogenous locus, in the cytoplasm of living S. cerevisiae cells; not shown: 1myeGFP, C-terminal, kept
T3 sequence (P39743 whole entry): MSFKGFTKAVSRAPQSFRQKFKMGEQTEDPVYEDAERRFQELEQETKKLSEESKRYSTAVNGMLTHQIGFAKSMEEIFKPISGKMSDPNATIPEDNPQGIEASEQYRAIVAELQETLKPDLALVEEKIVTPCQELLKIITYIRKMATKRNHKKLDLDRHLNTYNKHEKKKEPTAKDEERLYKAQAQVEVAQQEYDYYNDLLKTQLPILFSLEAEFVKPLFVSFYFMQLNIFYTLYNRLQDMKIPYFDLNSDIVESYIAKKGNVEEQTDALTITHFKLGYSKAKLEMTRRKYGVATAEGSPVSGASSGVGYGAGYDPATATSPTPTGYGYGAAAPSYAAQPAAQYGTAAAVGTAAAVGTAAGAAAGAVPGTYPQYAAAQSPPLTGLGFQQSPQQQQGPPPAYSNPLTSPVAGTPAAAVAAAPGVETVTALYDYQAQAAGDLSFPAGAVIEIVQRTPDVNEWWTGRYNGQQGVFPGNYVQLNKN

[4] = target: T4, Ste11-3mCherry (S. cerevisiae, UniProt P23561 1-717); assay: fluorescence cross-correlation spectroscopy (FCCS); living yeast cells, observation volume in the cytoplasm; one protein tagged with (3)myeGFP/eGFP and the other with 3mCherry in the same strain; apparent (effective) KD; interactions up to ~1 μM detectable
T4 construct: Ste11, S. cerevisiae; negative control of FCCS; source: S. cerevisiae strain Don1-eGFP, Ste11-3mCherry, in living cells
T4 sequence (looked up): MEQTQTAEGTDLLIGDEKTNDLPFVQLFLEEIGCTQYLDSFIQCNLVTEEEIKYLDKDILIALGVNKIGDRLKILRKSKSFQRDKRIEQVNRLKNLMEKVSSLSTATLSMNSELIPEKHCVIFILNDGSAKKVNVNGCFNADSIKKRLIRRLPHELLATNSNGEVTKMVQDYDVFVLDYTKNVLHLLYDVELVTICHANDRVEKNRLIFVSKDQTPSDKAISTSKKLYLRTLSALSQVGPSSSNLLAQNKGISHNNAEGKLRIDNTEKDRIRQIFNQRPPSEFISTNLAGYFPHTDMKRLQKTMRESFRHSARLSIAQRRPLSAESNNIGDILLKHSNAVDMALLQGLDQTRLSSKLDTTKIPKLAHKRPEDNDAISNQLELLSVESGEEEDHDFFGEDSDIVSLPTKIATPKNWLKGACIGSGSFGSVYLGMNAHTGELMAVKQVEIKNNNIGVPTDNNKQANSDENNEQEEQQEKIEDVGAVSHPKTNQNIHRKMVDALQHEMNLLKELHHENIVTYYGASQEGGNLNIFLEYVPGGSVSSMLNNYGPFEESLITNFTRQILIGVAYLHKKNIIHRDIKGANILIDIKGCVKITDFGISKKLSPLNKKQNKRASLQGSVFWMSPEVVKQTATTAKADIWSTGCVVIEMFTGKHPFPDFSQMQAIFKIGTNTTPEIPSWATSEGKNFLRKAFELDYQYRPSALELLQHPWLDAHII

Kd [1]: 994 nM
Kd [2]: 976 nM
B1: Bzz1 (natural protein, S. cerevisiae, UniProt P38822 1-633, looked up)
chain: MSADLSIGNEIKDSFKETHKWVQNNLKWLKDIEQFYRERAKLEKDYSERLSRLSAEYFNKKSSTSVPISVGDTPTTTPGSIEAAGVVAWNEILSQTDMISKDHDQLSTDFENHVANQLSGLFTKLDMTLSKINGFNNDMVNKKDNIYHELEKAKKDYDEACSTMEMARNRYTKASNDRNKKKLDEKEMEMNKCKNEYLIKINQANRTKDKYYFQDVPEVLDLLQDVNEAKTLFLNDLWLKAASVENDLGANVSKRLQAANSVVKQNKPSLNTAIFIKHNLKNWKEPQDFVYKPSPVWHDDEKFAVPSSLEVEDLRIKLAKAENDYNSLQDKTQNELSKLSTLNKIKHEMKTNEDNINATKFYDTLKEYLNVVSPFTSHETLKLQAEVQIESIQNNVPEEYDLSTDNIDLSKTKKKSGIFSKFKHNILNVDSKPSSGGSTGNGNGGPLHITSLFNTSRRTRLGSAPNNAGEDSDNNSIRTTSTNNTKKTTQNSSDDGKNKVLYAYVQKDDDEITITPGDKISLVARDTGSGWTKINNDTTGETGLVPTTYIRISSAATVKANDRGPAPEVPPPRRSTLPVRTMEAIYAYEAQGDDEISIDPGDIITVIRGDDGSGWTYGECDGLKGLFPTSYCK
notes: Bzz1, S. cerevisiae; also called Bzz1-3myeGFP; Bzz1-3mCherry; source: chromosomally tagged at the endogenous locus, in the cytoplasm of living S. cerevisiae cells

Kd [3]: 6 nM
B2: Rvs161 (natural protein, S. cerevisiae, UniProt P25343 1-265, looked up)
chain: MSWEGFKKAINRAGHSVIIKNVDKTIDKEYDMEERRYKVLQRAGEALQKEAKGFLDSLRAVTASQTTIAEVISNLYDDSKYVAGGGYNVGNYYLQCVQDFDSETVKQLDGPLRETVLDPITKFSTYFKEIEEAIKKRDHKKQDFDAAKAKVRRLVDKPAKDASKLPRAEKELSLAKDIFENLNNQLKTELPQLVSLRVPYFDPSFEALIKIQLRFCTDGYTRLAQIQQYLDQQSRDDYANGLLDTKIEELLGQMTSLDICALGIK
notes: Rvs161, amphiphysin-like protein, S. cerevisiae; also called Rvs161-1myeGFP; Rvs161-3mCherry; source: chromosomally tagged at the endogenous locus, in the cytoplasm of living S. cerevisiae cells

Kd [4]: > 1000 nM
B3: Don1-eGFP (natural protein, S. cerevisiae, UniProt Q05610 1-365, looked up)
chain: MGKKNRKGKENNAAKTSFLKVENIKNTNSGLELPSQDYTNVEEKESSPKTDFPLITKEHVNTKTDSNILDYPTIGDLVSSVEKLCVLKELKIAFPEVDDTLIKAILIASQGVLEPAFNSLLYYSSPEENTDFALPMKPISVEDYSKINVSEILQREIFDDIEDEFSGQGINGSMVISKIESELSSLAEHIGNISTPGSNREVAESTRNVAVAEGHNTILSNEDSILKGKEKGKEEEKEKGEEKGVNSLKGAAVKVVAKSLKNNRIPVTVKRNEPSNNLFDVLNCDESEEEEEQDVETNTSNQERKNQGGNTEVPEAQRDSADRLPAKDDGGYKSAFGTDSCGLFAADAKDEKKQVHPSRQELSFT
notes: Don1, S. cerevisiae; negative control of FCCS; source: S. cerevisiae strain Don1-eGFP, Ste11-3mCherry, in living cells
